Test results taken from patent US20190224279A1, “PHARMACEUTICAL ASSOCIATION COMPRISING A GROWTH FACTOR RECEPTOR AGONIST CONJUGATED TO A BIOACTIVE CARRIER FOR CONVERTING A NEOPLASTIC CELL INTO A NON-NEOPLASTIC CELL AND USES THEREOF” (HISTIDE AG, priority 2015, published 2019).
No end group written: not given here.

Molecular target: growth factor receptors
Test: cell-based or functional assay

p-Smad1/5/8 (%)	Binder
30	VPTELSPISILFIRIKPHQGHLGEMSAAVVE (not fully specified) [GFR-binding compound of SEQ ID NO: 70]
44	VPEKMSSLSILFFDENKNVVLKVYPNMAVS (not fully specified) [GFR-binding compound of SEQ ID NO: 73]
52	APTQLSAISTLYLEIVRKKPLKNYQFLQHNK (not fully specified) [GFR-binding compound of SEQ ID NO: 77]
35	VPTKLSPISILYIDKMGVPTYKQYEEGMSVAE (not fully specified) [GFR-binding compound of SEQ ID NO: 82]
33	VPARLSPISILYIDEMGVPTYKQYEEGMSVAE (not fully specified) [GFR-binding compound of SEQ ID NO: 83]
39	VPQALSPISILYIDDMGVPTYKQYEEGMSVAE (not fully specified) [GFR-binding compound of SEQ ID NO: 68]
40	VPTKLSPISILYIDDMGVPTYKQYEEGMSVAE (not fully specified) [GFR-binding compound of SEQ ID NO: 67]
48	VPQALNAISTLYFDDSSNVILKKYRNMAVS (not fully specified) [GFR-binding compound of SEQ ID NO: 72]
34	ASASPSSVPQDLEPLTILYYVGRTPKVEQLSNMVEDH (not fully specified) [GFR-binding compound of SEQ ID NO: 80]
52	VPEKMSSLSILFFDENKNAALKVYPNMTVE (not fully specified) [GFR-binding compound of SEQ ID NO: 92]
22	VPTEESNITTQIMRIKPHQGQHIGEMSFLQH (not fully specified) [GFR-binding compound of SEQ ID NO: 84]
32	VPTEESNITTQIMRIKPHQGQHIGEMSFLQH (not fully specified) [GFR-binding compound of SEQ ID NO: 69]
39	VSQDLSAISTLYLKIVRKEPLKNYQEMVEE (not fully specified) [GFR-binding compound of SEQ ID NO: 98]
51	VPARLSPISILYIDAANNVVYKQYEDM (not fully specified) [GFR-binding compound of SEQ ID NO: 74]
26	VPQALSPISILFIRLKPHQGHLGEMSNMVVR (not fully specified) [GFR-binding compound of SEQ ID NO: 85]
58	APTQLSAISTLYLEIVRKKPLKNYQEMEDH (not fully specified) [GFR-binding compound of SEQ ID NO: 78]
38	ASASPSSVPQDLEPLTILYYVGRTPKVEQLSNMV (not fully specified) [GFR-binding compound of SEQ ID NO: 65]
41	RNVQCRPTQLEPLPIVYYEIVRKKPEQLSNTLEDHLA (not fully specified) [GFR-binding compound of SEQ ID NO: 81]

p-Smad1/5/8 (%)	Binder
38	RNVQCRPTQLEPLPIVYYEIVRKKPEQLSNTLEDHLA (not fully specified) [GFR-binding compound of SEQ ID NO: 66]
41	TPTKMSPINMLYFNEKNNIIYGKIPGM (not fully specified) [GFR-binding compound of SEQ ID NO: 94]
55	TPTKMSPINMLYFNEKNNIIYGKIPGMVVD (not fully specified) [GFR-binding compound of SEQ ID NO: 76]
36	NDEGLECVPTEERPVQVRKIRIKPHQGQKKATVFLQHNK (not fully specified) [GFR-binding compound of SEQ ID NO: 64]
27	NDEGLECVPTEERPVQVRKIRIKPHQGQKKATVFLQHNK (not fully specified) [GFR-binding compound of SEQ ID NO: 79]
41	VPQALSPISILFIVGRKPKVYKQYEMIVERS (not fully specified) [GFR-binding compound of SEQ ID NO: 89]
47	VPTHHSAISTLYLELAGEKPLKNYQFLQHNK (not fully specified) [GFR-binding compound of SEQ ID NO: 96]
34	APTKLEPLPMVYYEERRNVIEQLSNNMVVR (not fully specified) [GFR-binding compound of SEQ ID NO: 86]
29	RNVQCRPTQLEPLPIVYYEIVRKKPEQLSNTLE (not fully specified) [GFR-binding compound of SEQ ID NO: 95]
56	SRVHHNAISTLYFDESSNVILKKYRGMSVVE (not fully specified) [GFR-binding compound of SEQ ID NO: 91]
47	TQVQLEPLTLLYYDENEKVIEQLSNDMVVE (not fully specified) [GFR-binding compound of SEQ ID NO: 71]
54	VPQALSPINMLYFNEKNQIIYGKIPFLQHNK (not fully specified) [GFR-binding compound of SEQ ID NO: 75]
32	APTKLEPLTIVYYDDSSNVIEQLSNNMVVR (not fully specified) [GFR-binding compound of SEQ ID NO: 88]
38	VPTKLSAISTLYLDLAREEPLKNYQEMVVE (not fully specified) [GFR-binding compound of SEQ ID NO: 87]
44	VPARLSPISILYIDAANNVVYKQYEDMVKS (not fully specified) [GFR-binding compound of SEQ ID NO: 93]
46	VPTHHSAISMLYLELGGDKPLENYQFLQ (not fully specified) [GFR-binding compound of SEQ ID NO: 97]
36	VPTELSPISILFIVGGKPKVYKQYENMVVE (not fully specified) [GFR-binding compound of SEQ ID NO: 90]
